From PMC4773420 (Nature Communications, 2016)

B1: BTG2(APRO) (domain or fragment, human, UniProt P78543 1-126, looked up)
chain: MSHGKGTDMLPEIAAAVGFLSSLLRTRGCVSEQRLKVFSGALQEALTEHYKHHWFPEKPSKGSGYRCIRINHKMDPIISRVASQIGLSQPQLHQLLPSELTLWVDPYEVSYRIGEDGSICVLYEEA
notes: BTG2, human, APRO domain; also called BTG2 APRO domain, GST removed; source: E. coli BL21-CodonPlus, purified (GSTrap FF, thrombin cleavage, Superdex 75)
B2: 5'Fluo-poly(A)75 (ssRNA)
RNA: AAAAAAAAAAAAAAAAAAAAAAAAAAAAAAAAAAAAAAAAAAAAAAAAAAAAAAAAAAAAAAAAAAAAAAAAAAA

Assays:
6His-PABPC1(1–190) = target: T1, 6His-PABPC1(1–190) (human, UniProt P11940 1-190); assay: AUC; analytical ultracentrifugation of BTG2(APRO) (GST removed) and 6His-PABPC1(1–190), both purified to homogeneity; no RNA (Supplementary Fig. 2); conditions: both partners purified
T1 construct: PABPC1, human, RRM domains 1 and 2, amino acids 1-190; also called 6His-tagged PABPC1 RRM domains 1 and 2; first two RRMs of PABPC1; source: E. coli BL21-CodonPlus; co-expressed, in lysate (pull-down); purified (HisTrap FF crude, Superdex 75)
T1 sequence (P11940 1-190): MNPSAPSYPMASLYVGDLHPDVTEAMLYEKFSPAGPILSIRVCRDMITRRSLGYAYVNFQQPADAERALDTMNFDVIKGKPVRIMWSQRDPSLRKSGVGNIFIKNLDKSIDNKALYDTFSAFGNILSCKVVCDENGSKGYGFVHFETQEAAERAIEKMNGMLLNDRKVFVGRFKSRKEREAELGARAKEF

6His-PABPC1(1-190) = 6His-PABPC1(1-190) (human, UniProt P11940 1-190); assay: EMSA; 100 nM RNA; complete shift at 7 pmol protein per 1 pmol RNA; EMSA: 100 nM 5'-fluorescein RNA, native PAGE; EMSA buffer not in the material (deadenylation assays: 20 mM HEPES-KOH pH 8.0, 100 mM KCl, 0.5 mM DTT, 0.1% Igepal)
Sequence of 6His-PABPC1(1-190) (P11940 1-190): as above

6His-PABPC1(FL) = 6His-PABPC1(FL) (human, UniProt P11940 1-636); assay: EMSA; 100 nM RNA; complete shift at 7 pmol protein per 1 pmol RNA; multiple PABPC1 molecules bound; EMSA: 100 nM 5'-fluorescein RNA, native PAGE; EMSA buffer not in the material (deadenylation assays: 20 mM HEPES-KOH pH 8.0, 100 mM KCl, 0.5 mM DTT, 0.1% Igepal)
Sequence of 6His-PABPC1(FL) (P11940 whole entry): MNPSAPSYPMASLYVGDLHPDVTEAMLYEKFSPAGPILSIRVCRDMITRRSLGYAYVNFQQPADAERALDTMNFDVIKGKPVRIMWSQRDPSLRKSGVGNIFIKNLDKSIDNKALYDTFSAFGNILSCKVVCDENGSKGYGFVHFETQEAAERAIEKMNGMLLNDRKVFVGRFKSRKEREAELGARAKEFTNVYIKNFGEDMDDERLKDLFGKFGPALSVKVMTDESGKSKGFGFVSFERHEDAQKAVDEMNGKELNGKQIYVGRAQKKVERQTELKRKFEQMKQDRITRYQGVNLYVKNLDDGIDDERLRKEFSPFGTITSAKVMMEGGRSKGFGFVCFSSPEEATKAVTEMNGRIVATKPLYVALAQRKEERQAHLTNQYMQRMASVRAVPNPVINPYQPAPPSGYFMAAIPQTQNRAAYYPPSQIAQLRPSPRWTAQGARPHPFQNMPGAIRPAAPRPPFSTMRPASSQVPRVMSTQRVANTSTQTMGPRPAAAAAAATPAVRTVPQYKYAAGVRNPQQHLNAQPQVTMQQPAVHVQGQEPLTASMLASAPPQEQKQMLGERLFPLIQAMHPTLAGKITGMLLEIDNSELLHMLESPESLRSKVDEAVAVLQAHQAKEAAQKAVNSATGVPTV

| Binder | Kd (6His-PABPC1(1–190)) | stoichiometry N (6His-PABPC1(1–190)) | binding result (6His-PABPC1(1-190)) | binding result (6His-PABPC1(FL)) |
| --- | --- | --- | --- | --- |
| B1 | ~5 µM | 1 | – | – |
| B2 | – | – | binds | binds |
